Data: patent publication US20050191621A1

Columns and labels:
[1] = molecular target: IIIB-V3BaL Env (HXB Env with the V3 loop of HIV-1/BaL; on luciferase reporter virions) (HIV-1 (IIIB/BaL chimera)); test: cell-based or functional assay
[2] = molecular target: 8x-V3BaL Env (8x Env with the V3 loop of HIV-1/BaL; on cells or on luciferase reporter virions) (HIV-1 (IIIBx 8x/BaL chimera)); test: cell-based or functional assay

Substance | concentration of antibody required to neutralize 50% of input virus (luciferase reporter virus, GHOST-CCR5 cells) [1] [ng/mL] | concentration of antibody required to neutralize 90% of input virus (luciferase reporter virus, GHOST-CCR5 cells) [1] [ng/mL] | concentration of antibody required to neutralize 50% of input virus (luciferase reporter virus, GHOST-CCR5 cells) [2] [ng/mL] | concentration of antibody required to neutralize 90% of input virus (luciferase reporter virus, GHOST-CCR5 cells) [2] [ng/mL] | percent neutralization at 200 ng/ml (luciferase reporter virus, GHOST-CCR5 cells) [2] [%]
CD4-induced (CD4i) monoclonal antibody 17b | 14 | 90 | 2 | 15 | –
CD4-induced (CD4i) monoclonal antibody 48d | > 5000 | > 5000 | 3 | > 200 | 88
